# Assay results published in IntAct's records for PubMed 31515488.
# B1: Protein Dr1 (Homo sapiens), Q01658 (parent)
# chain: MASSSGNDDDLTIPRAAINKMIKETLPNVRVANDARELVVNCCTEFIHLISSEANEICNKSEKKTISPEHVIQALESLGFGSYISEVKEVLQECKTVALKRRKASSRLENLGIPEEELLRQQQELFAKARQQQAELAQQEWLQMQQAAQQAQLAAASASASNQAGSSQDEEDDDDI
# B2: STAM-binding protein (Homo sapiens), O95630 (parent)
# chain: MSDHGDVSLPPEDRVRALSQLGSAVEVNEDIPPRRYFRSGVEIIRMASIYSEEGNIEHAFILYNKYITLFIEKLPKHRDYKSAVIPEKKDTVKKLKEIAFPKAEELKAELLKRYTKEYTEYNEEKKKEAEELARNMAIQQELEKEKQRVAQQKQQQLEQEQFHAFEEMIRNQELEKERLKIVQEFGKVDPGLGGPLVPDLEKPSLDVFPTLTVSSIQPSDCHTTVRPAKPPVVDRSLKPGALSNSESIPTIDGLRHVVVPGRLCPQFLQLASANTARGVETCGILCGKLMRNEFTITHVLIPKQSAGSDYCNTENEEELFLIQDQQGLITLGWIHTHPTQTAFLSSVDLHTHCSYQMMLPESVAIVCSPKFQETGFFKLTDHGLEEISSCRQKGFHPHSKDPPLFCSCSHVTVVDRAVTITDLR
# B3: Grainyhead-like protein 2 homolog (Homo sapiens), Q6ISB3 (parent)
# chain: MSQESDNNKRLVALVPMPSDPPFNTRRAYTSEDEAWKSYLENPLTAATKAMMSINGDEDSAAALGLLYDYYKVPRDKRLLSVSKASDSQEDQEKRNCLGTSEAQSNLSGGENRVQVLKTVPVNLSLNQDHLENSKREQYSISFPESSAIIPVSGITVVKAEDFTPVFMAPPVHYPRGDGEEQRVVIFEQTQYDVPSLATHSAYLKDDQRSTPDSTYSESFKDAATEKFRSASVGAEEYMYDQTSSGTFQYTLEATKSLRQKQGEGPMTYLNKGQFYAITLSETGDNKCFRHPISKVRSVVMVVFSEDKNRDEQLKYWKYWHSRQHTAKQRVLDIADYKESFNTIGNIEEIAYNAVSFTWDVNEEAKIFITVNCLSTDFSSQKGVKGLPLMIQIDTYSYNNRSNKPIHRAYCQIKVFCDKGAERKIRDEERKQNRKKGKGQASQTQCNSSSDGKLAAIPLQKKSDITYFKTMPDLHSQPVLFIPDVHFANLQRTGQVYYNTDDEREGGSVLVKRMFRPMEEEFGPVPSKQMKEEGTKRVLLYVRKETDDVFDALMLKSPTVKGLMEAISEKYGLPVEKIAKLYKKSKKGILVNMDDNIIEHYSNEDTFILNMESMVEGFKVTLMEI
# partner: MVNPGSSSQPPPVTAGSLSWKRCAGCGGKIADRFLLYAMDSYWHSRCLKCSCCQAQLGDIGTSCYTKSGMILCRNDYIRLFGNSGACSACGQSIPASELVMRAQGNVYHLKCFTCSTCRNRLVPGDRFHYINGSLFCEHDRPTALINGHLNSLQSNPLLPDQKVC
# B4: Germ cell-less protein-like 1 (Homo sapiens), Q96IK5 (parent)
# chain: MGSLSSRVLRQPRPALAQQAQGARAGGSARRPDTGDDAAGHGFCYCAGSHKRKRSSGSFCYCHPDSETDEDEEEGDEQQRLLNTPRRKKLKSTSKYIYQTLFLNGENSDIKICALGEEWSLHKIYLCQSGYFSSMFSGSWKESSMNIIELEIPDQNIDVEALQVAFGSLYRDDVLIKPSRVVAILAAACLLQLDGLIQQCGETMKETVNVKTVCGYYTSAGTYGLDSVKKKCLEWLLNNLMTHQNVELFKELSINVMKQLIGSSNLFVMQVEMDIYTALKKWMFLQLVPSWNGSLKQLLTETDVWFSKQRKDFEGMAFLETEQGKPFVSVFRHLRLQYIISDLASARIIEQDAVVPSEWLSSVYKQQWFAMLRAEQDSEVGPQEINKEELEGNSMRCGRKLAKDGEYCWRWTGFNFGFDLLVTYTNRYIIFKRNTLNQPCSGSVSLQPRRSIAFRLRLASFDSSGKLICSRTTGYQILTLEKDQEQVVMNLDSRLLIFPLYICCNFLYISPEKKN
# Variants of: B1
# Conditions: with dpoe3_human POLE3, Q9NRF9
# Chain of dpoe3_human POLE3, Q9NRF9 (Q9NRF9 whole entry): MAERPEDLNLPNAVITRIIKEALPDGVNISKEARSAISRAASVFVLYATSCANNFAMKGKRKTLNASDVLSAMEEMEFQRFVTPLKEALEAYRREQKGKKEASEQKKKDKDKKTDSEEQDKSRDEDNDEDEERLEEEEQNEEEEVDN
row,Variant,effect of a mutation on the interaction
1,E171D,with no effect

# Variants of: B1
# Conditions: with tbp_human TBP
row,Variant,effect of a mutation on the interaction
1,E171D,with no effect

# Variants of: B2
# Conditions: with grb2_human GRB2, P62993
# Chain of grb2_human GRB2, P62993 (P62993 whole entry, looked up): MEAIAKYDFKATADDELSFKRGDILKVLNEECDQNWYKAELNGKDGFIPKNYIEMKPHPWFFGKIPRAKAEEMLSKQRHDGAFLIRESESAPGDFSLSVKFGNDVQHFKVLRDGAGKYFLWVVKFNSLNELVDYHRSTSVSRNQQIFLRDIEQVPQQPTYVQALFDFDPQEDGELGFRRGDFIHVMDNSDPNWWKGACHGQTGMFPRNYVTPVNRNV
row,Variant,effect of a mutation on the interaction
1,E167K,disrupting interaction strength
2,Q155H,disrupting interaction strength
3,R255H,with no effect

# Variants of: B2
# Conditions: with stam2_human STAM2, O75886
row,Variant,effect of a mutation on the interaction
1,Q155H,disrupting interaction strength
2,R255H,with no effect

# Variants of: B3
# Conditions: with lmo4_human LMO4, P61968
row,Variant,effect of a mutation on the interaction
1,K9R,with no effect

# Variants of: B4
# Conditions: with cul3_human CUL3, Q13618
row,Variant,effect of a mutation on the interaction
1,Y61S,with no effect
2,K281Q,with no effect
3,R449Q,with no effect
4,R457H,with no effect
5,E77K,with no effect
6,I147V,with no effect
7,I340V,with no effect
8,K123R,with no effect

# Variants of: B4
# Conditions: with FAM167A
row,Variant,effect of a mutation on the interaction
1,Y61S,with no effect
2,K281Q,disrupting interaction strength
3,R449Q,with no effect
4,R457H,disrupting interaction strength
5,E77K,with no effect
6,I147V,with no effect
7,I340V,with no effect
8,K123R,with no effect
